Measurements reported in patent publication US20220152108A1.

Biological target: sodium taurocholate co-transporting receptor (NTCP), expressed on HepG2 cells (human) (UniProt Q14973)
Assay: cell-based or functional assay

Chain of UniProt Q14973 (Q14973 whole entry): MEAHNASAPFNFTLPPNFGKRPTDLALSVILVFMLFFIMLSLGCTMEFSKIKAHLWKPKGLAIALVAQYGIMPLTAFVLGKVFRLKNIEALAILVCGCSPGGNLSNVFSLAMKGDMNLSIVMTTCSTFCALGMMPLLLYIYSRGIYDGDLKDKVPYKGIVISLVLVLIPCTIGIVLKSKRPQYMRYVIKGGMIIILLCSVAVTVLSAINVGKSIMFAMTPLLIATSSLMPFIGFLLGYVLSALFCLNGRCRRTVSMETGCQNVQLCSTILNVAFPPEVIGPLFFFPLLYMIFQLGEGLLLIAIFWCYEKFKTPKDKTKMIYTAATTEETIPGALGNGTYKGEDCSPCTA

CAR-PreS1 construct (signal peptide-PreS1-CD8 hinge-CD8 Transmembrane-CD28-4-1BB-CD3zeta-T2A-EGFP), expressed on T cells
IFN gamma expression of CAR-PreS1 T cells co-cultured with HepG2 cells expressing or lacking NTCP: 3 fold | degranulation (CD107a expression) of CAR-PreS1 T cells co-cultured with HepG2 cells expressing or lacking NTCP: 2 fold
